B3: C-10 peptide (peptide)
peptide: GTINVHDVETQFNQYKTEAASRYNLTISDVSVSDV
notes: also called PSMGFR C-10; PSMGFR minus 10 amino acids from the C-terminus

Assays:
C-10 peptide [1] = molecular target: B3; experiment: peptide ELISA
[2] = molecular target: T1, MUC1* expressed on HCT-116 cells transfected with MUC1* (extra cellular domain is just the PSMGFR sequence) (Homo sapiens (Human), UniProt P15941 1110-1255); experiment: flow cytometry (FIG. 4D-4F)
T1 construct: In Western blot rows the same protein stood denatured in cell lysate; also called HCT-MUC1*; HCT-FLR
T1 sequence: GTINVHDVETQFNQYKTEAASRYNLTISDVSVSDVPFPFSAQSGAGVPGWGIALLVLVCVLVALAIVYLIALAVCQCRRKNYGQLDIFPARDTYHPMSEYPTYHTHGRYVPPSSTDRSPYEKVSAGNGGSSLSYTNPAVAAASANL

PSMGFR peptide [3] = molecular target: T2, PSMGFR peptide; experiment: ELISA, peptide on plate (FIG. 2C)
T2 construct: also called MUC1* peptide
T2 peptide: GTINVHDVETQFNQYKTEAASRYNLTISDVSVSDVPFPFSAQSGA

N+20/C-27 peptide [4] = molecular target: T3, N+20/C-27 peptide; experiment: ELISA, peptide on plate (FIG. 63)
T3 peptide: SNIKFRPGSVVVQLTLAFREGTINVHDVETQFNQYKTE
Procedure: (§1) ELISA assays were performed to determine if, in addition to recognizing their immunizing peptide, they recognized PSMGFR, N-10 or C-10. In addition, they were tested for their ability to bind to N+20/C-27, N+9/C-9. We first did the ELISA assay on our set of reference antibodies, MNC2, MNE6, which we know are cancer-specific plus MNC3, which we know recognizes stem cells and progenitor cells (FIG. 63A-63B). None of the reference antibodies bound to the N+20/C-27 peptide. MNC2 and MNE6 cannot bind to PSMGFR peptides with 27, 10 or 9 C-terminal deletions, however, MNC3 binds to C-10 and to N+9/C-9 peptides.

N+9/C-9 peptide [5] = molecular target: T4, N+9/C-9 peptide; experiment: ELISA, peptide on plate (FIG. 63)
T4 peptide: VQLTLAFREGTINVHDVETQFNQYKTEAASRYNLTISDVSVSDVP
Procedure: as §1

N-10 peptide [6] = molecular target: T5, N-10 peptide; experiment: ELISA, peptide on plate (FIG. 2B-2C)
T5 construct: also called PSMGFR N-10; PSMGFR minus 10 amino acids from the N-terminus
T5 peptide: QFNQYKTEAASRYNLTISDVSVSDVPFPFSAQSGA

PSMGFR peptide [7] = molecular target: T2, PSMGFR peptide; experiment: ELISA, peptide on plate
N+20/C-27 peptide [8] = molecular target: T3, N+20/C-27 peptide; experiment: ELISA, peptide on plate (FIG. 66)
N+9/C-9 peptide [9] = molecular target: T4, N+9/C-9 peptide; experiment: ELISA, peptide on plate (FIG. 66)
N-10 peptide [10] = molecular target: T5, N-10 peptide; experiment: ELISA, peptide on plate (FIG. 69)
C-10 peptide [11] = molecular target: B3; experiment: ELISA, peptide on plate (FIG. 69)
N-19 peptide = molecular target: T6, N-19 peptide; experiment: ELISA, peptide on plate (FIG. 69)
T6 peptide: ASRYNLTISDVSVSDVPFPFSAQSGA

N-26 peptide = molecular target: T7, N-26 peptide; experiment: ELISA, peptide on plate (FIG. 69)
T7 peptide: ISDVSVSDVPFPFSAQSGA

N-30 peptide = molecular target: T8, N-30 peptide; experiment: ELISA, peptide on plate (FIG. 69)
T8 peptide: SVSDVPFPFSAQSGA

N-10/C-5 peptide = molecular target: T9, N-10/C-5 peptide; experiment: ELISA, peptide on plate (FIG. 69)
T9 peptide: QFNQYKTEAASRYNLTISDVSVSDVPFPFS

N-19/C-5 peptide = molecular target: T10, N-19/C-5 peptide; experiment: ELISA, peptide on plate (FIG. 69)
T10 peptide: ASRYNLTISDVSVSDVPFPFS

[12] = molecular target: T1, MUC1* expressed on HCT-116 cells …; experiment: denaturing Western blot of cell lysates, linear epitope test (FIG. 74)
Procedure: Antibodies were tested to determine whether they recognize a linear or a conformational epitope. Only antibodies that recognize a linear epitope work in Western blots when using denaturing gels. […] The antibodies tested for comparison are MNC2 and MNE6, which were known to only recognize a conformational epitope, SDIX which is a polyclonal antibody raised against PSMGFR and VU4H5, which is a commercially available monoclonal antibody that recognizes the tandem repeats of full-length MUC1 (FIG. 71A-71D). […] The SDIX polyclonal antibody recognizes HCT-MUC1* but not full-length MUC1 and VU4H5 only recognizes full-length MUC1. These same antibodies were also tested for their ability to work in Western blots of two breast cancer cell lines 1500, aka Zr-75-1, and T47D cells and show the same binding pattern (FIG. 71E-71H).
Antibodies that were raised against the PSMGFR peptide were tested the same way in Western blots (FIG. 72A-72P). […] Antibodies that were raised against the N+20/C-27 peptide were tested the same way in Western blots (FIG. 73A-73J). […] Antibodies 1E4 and 45C11 may recognize a conformational epitope. Antibodies that were raised against the N+9/C-9 peptide were tested the same way in Western blots (FIG. 74A-74H). […] These antibodies may recognize a conformational epitope.

NME7AB = molecular target: T11, NME7AB (Homo sapiens (Human), UniProt Q9Y5B8 92-376); experiment: ELISA, peptide on plate (FIG. 2A)
T11 construct: NME7A in the text appears to be NME7AB; also called NM23-H7; NME7A
T11 sequence: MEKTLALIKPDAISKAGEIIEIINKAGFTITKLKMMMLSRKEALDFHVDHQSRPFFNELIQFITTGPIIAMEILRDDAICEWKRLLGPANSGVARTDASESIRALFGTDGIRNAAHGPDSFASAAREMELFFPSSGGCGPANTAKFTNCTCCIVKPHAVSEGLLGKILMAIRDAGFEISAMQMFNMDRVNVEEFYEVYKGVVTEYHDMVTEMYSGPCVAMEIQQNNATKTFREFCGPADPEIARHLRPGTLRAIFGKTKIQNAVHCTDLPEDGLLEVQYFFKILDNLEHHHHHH
Procedure: (§2) FIGS. 2A-2I show results of ELISA assays. MUC1* peptides PSMGFR, PSMGFR minus 10 amino acids from the N-terminus aka N-10, or PSMGFR minus 10 amino acids from the C-terminus, aka C-10 are immobilized on the plate and the following are assayed for binding: NME7-AB (FIG. 2A), MNC2 monoclonal antibody (FIG. 2B), MNE6 monoclonal antibody (FIG. 2C), or dimeric NME1 (FIG. 2D). […] MUC1* peptides PSMGFR minus 10 amino acids from the N-terminus aka N-10, or PSMGFR minus 10 amino acids from the C-terminus, aka C-10, are immobilized on the plate and the following are assayed for binding: MNC3 (FIG. 2E) and MNC8 (FIG. 2F).

dimeric NME1 = molecular target: T12, dimeric NME1 (Homo sapiens (Human), UniProt P15531 1-152, limits assumed); experiment: ELISA, peptide on plate (FIG. 2D)
T12 construct: also called NM23-H1 dimers; dimeric NM23-H1
T12 sequence (P15531 whole entry): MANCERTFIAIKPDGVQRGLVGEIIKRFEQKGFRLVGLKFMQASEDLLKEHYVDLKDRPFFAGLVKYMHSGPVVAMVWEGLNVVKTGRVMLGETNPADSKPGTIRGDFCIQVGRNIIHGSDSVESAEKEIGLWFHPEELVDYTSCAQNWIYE
Procedure: as §2

B1: mouse monoclonal antibody MNE6 (antibody, V domains shown)
VH: EVKVVESGGDLVKPGGSLKLSCVVSGFTFSRYGMSWVRQTPGKRLEWVATISGGGTYIYYPDSVKGRFTISRDNAKNTLYLQMSSLKSEDTAMYHCTRDNYGRNYDYGMDYWGQGTSVTVSS
VL: QIVLTQSPAIMSASPGEEVTLTCSATSSVSYIHWFQQRPGTSPKLWIYSTSNLASGVPVRFSGSGYGTSYSLTISRMEAEDAATYYCQQRSSSPFTFGSGTKLEIK
notes: Mouse monoclonal raised against the PSMGFR peptide; also called Min-E6
C-10 peptide [1]
  binding result: no binding
[2]
  binding result: binds
PSMGFR peptide [3]
  binding result: binds
N+20/C-27 peptide [4]
  binding result: no binding
N+9/C-9 peptide [5]
  binding result: no binding (tested: 10 ug/mL or 1 ug/mL)
N-10 peptide [6]
  binding result: binds

B2: monoclonal antibody 8A9 (antibody, V domains shown)
VH: EVELVESGGGLVQPGGSLRLSCATSGFTFTDHYMSWVRQPPGKALEWLGFIRNKANGYTTEYSASVKGRFTISRDNSQSILYLQMKTLRTEDSATYYCARPSDWDSWFAYWGQGTLVTVSA
VL: DVLMTQTPLSLPVSLGDQASISCRSSQSIVHSNGNTYLDWYLQKPGQSPKLLIYRVSNRFSGVPDRFSGSGSGTDFTLKISRVEAEDLGLYYCFQGSHVPWAFGGGTKLEIK
notes: Raised against the N+9/C-9 peptide; also called N+9/C-9 antibody 8A9
PSMGFR peptide [7]
  binding result: no binding
N+20/C-27 peptide [8]
  binding result: no binding
N+9/C-9 peptide [9]
  binding result: binds
N-10 peptide [10]
  binding result: no binding
C-10 peptide [11]
  binding result: no binding
N-19 peptide
  binding result: no binding
N-26 peptide
  binding result: no binding
N-30 peptide
  binding result: no binding
N-10/C-5 peptide
  binding result: no binding
N-19/C-5 peptide
  binding result: no binding
[12]
  binding result: no binding

## B3
NME7AB
  binding result: no binding
Dimeric NME1
  binding result: no binding

Source: US20240390418A1 (MINERVA BIOTECHNOLOGIES, published 2024)
